# Results as given in patent publication US20230242902A1, “A HIGHLY ERROR-PRONE […] R[…] FOR TARGETED CONTINUOUS EVOLUTION IN VIVO” (The Regents of the University of California, priority 2017, published 2023).
# System: p1
# Assay: p1 copy number by p1-encoded mKate2 fluorescence
# Format: cell-based, S. cerevisiae
# Settings: OR-Y24, measured in triplicate
# Method in brief: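 Read-out is mKate2 fluorescence of saturated OR-Y24 cultures, measured by flow cytometry or by plate reader with OD600 normalization. Flow values were converted by a qPCR-derived linear calibration; plate values were scaled to a w.t. TP-DNAP1 control.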
row,Molecule,Mean fold-increase over w.t. (p1 copy number)
1,E704N: TP-DNAP1 variant (protein) MDYKDKALNDLRNVYADFDSLPLDFRQILIKDRATLLQKEDVEKKILERQEDAKKYAEYLKQSEIPERISLPNIKRHKGVSISFEETSEDMVLEPRPFIFDGLNIRCFRRETIFSLKNKILNMVKESSSFKNVSRQSVSFMYFKIFNKGKVIASTKSVNIYEDKIDERLEDLCNNFDDVLKKIIDVTYGYESLFVSETYSYVIFYAKSIYFPQPRCVNNWGNNIPNILTFDSFKLFTANKNNVSCIKQCSRFLWQKDFNTLEEMIEYKNGNICIVTPQLHINDVRDIKSFNDIRLYSESPIKTFSVIDNTITYLFYFKEHLGVIFNITKSRHDRRVTKFSPLSKFSDVKNITVCFDIESYFDPEKESNQVNIPFICCASIIYNKVIGNIVDFEGRDCVAQMIEYVVDICGELNISSVELIAHNGGGYDFHYILSSMYNPAAIKNILIRNNSFISFNFAHDGVKFSVKDSYSFLLCSLANASKAFLNEETFKKTDFPHHDLKTADDLYKVYKEWSSVNTEINHVVEKEKLLITSEHIVNFTKNDKSKTLIEWSKDYCRNDVLVLSKVWLEFKNAVEDIFNCELVDQTMTLAGLSYKLFQANMPFDVELRHPNKEDYFNMREALIGGRCISVNGIYKDVLCLDVKSLYPASMAFYDQPYGSFKRVSSRPKDELGIYYVRVTPNRNNKSNFFPIRSHNKITYNNFENSTYIAWYTNVDIDIGLSEGHNIEYIPFDSYGNIGYSWSKKGKIFEKYIKDVLYKLKIKYEKQNNKVKRNVIKIIMNSLWGKFAQKWVNFEYFIKSEDDIDFESEEAYKIWDTDFMLIKKIKESTYSSKPIQNGVFTLSWARYHMKSIWDAGAKEGAECIYSDTDSIFVHKEHFKKNAKFMLNGLKVPIIGSEVGQLELECEFDKLLCAGKKQYMGFYTYFQDGKPCIKEKKRFKGIPSNYIIPELYAHLLSGADKEAKIQFLKFRREWGSVKGYIENKTVKAT,1.85 fold
2,E704G: TP-DNAP1 variant (protein) MDYKDKALNDLRNVYADFDSLPLDFRQILIKDRATLLQKEDVEKKILERQEDAKKYAEYLKQSEIPERISLPNIKRHKGVSISFEETSEDMVLEPRPFIFDGLNIRCFRRETIFSLKNKILNMVKESSSFKNVSRQSVSFMYFKIFNKGKVIASTKSVNIYEDKIDERLEDLCNNFDDVLKKIIDVTYGYESLFVSETYSYVIFYAKSIYFPQPRCVNNWGNNIPNILTFDSFKLFTANKNNVSCIKQCSRFLWQKDFNTLEEMIEYKNGNICIVTPQLHINDVRDIKSFNDIRLYSESPIKTFSVIDNTITYLFYFKEHLGVIFNITKSRHDRRVTKFSPLSKFSDVKNITVCFDIESYFDPEKESNQVNIPFICCASIIYNKVIGNIVDFEGRDCVAQMIEYVVDICGELNISSVELIAHNGGGYDFHYILSSMYNPAAIKNILIRNNSFISFNFAHDGVKFSVKDSYSFLLCSLANASKAFLNEETFKKTDFPHHDLKTADDLYKVYKEWSSVNTEINHVVEKEKLLITSEHIVNFTKNDKSKTLIEWSKDYCRNDVLVLSKVWLEFKNAVEDIFNCELVDQTMTLAGLSYKLFQANMPFDVELRHPNKEDYFNMREALIGGRCISVNGIYKDVLCLDVKSLYPASMAFYDQPYGSFKRVSSRPKDELGIYYVRVTPNRNNKSNFFPIRSHNKITYNNFEGSTYIAWYTNVDIDIGLSEGHNIEYIPFDSYGNIGYSWSKKGKIFEKYIKDVLYKLKIKYEKQNNKVKRNVIKIIMNSLWGKFAQKWVNFEYFIKSEDDIDFESEEAYKIWDTDFMLIKKIKESTYSSKPIQNGVFTLSWARYHMKSIWDAGAKEGAECIYSDTDSIFVHKEHFKKNAKFMLNGLKVPIIGSEVGQLELECEFDKLLCAGKKQYMGFYTYFQDGKPCIKEKKRFKGIPSNYIIPELYAHLLSGADKEAKIQFLKFRREWGSVKGYIENKTVKAT,1.75 fold
3,E704M: TP-DNAP1 variant (protein) MDYKDKALNDLRNVYADFDSLPLDFRQILIKDRATLLQKEDVEKKILERQEDAKKYAEYLKQSEIPERISLPNIKRHKGVSISFEETSEDMVLEPRPFIFDGLNIRCFRRETIFSLKNKILNMVKESSSFKNVSRQSVSFMYFKIFNKGKVIASTKSVNIYEDKIDERLEDLCNNFDDVLKKIIDVTYGYESLFVSETYSYVIFYAKSIYFPQPRCVNNWGNNIPNILTFDSFKLFTANKNNVSCIKQCSRFLWQKDFNTLEEMIEYKNGNICIVTPQLHINDVRDIKSFNDIRLYSESPIKTFSVIDNTITYLFYFKEHLGVIFNITKSRHDRRVTKFSPLSKFSDVKNITVCFDIESYFDPEKESNQVNIPFICCASIIYNKVIGNIVDFEGRDCVAQMIEYVVDICGELNISSVELIAHNGGGYDFHYILSSMYNPAAIKNILIRNNSFISFNFAHDGVKFSVKDSYSFLLCSLANASKAFLNEETFKKTDFPHHDLKTADDLYKVYKEWSSVNTEINHVVEKEKLLITSEHIVNFTKNDKSKTLIEWSKDYCRNDVLVLSKVWLEFKNAVEDIFNCELVDQTMTLAGLSYKLFQANMPFDVELRHPNKEDYFNMREALIGGRCISVNGIYKDVLCLDVKSLYPASMAFYDQPYGSFKRVSSRPKDELGIYYVRVTPNRNNKSNFFPIRSHNKITYNNFEMSTYIAWYTNVDIDIGLSEGHNIEYIPFDSYGNIGYSWSKKGKIFEKYIKDVLYKLKIKYEKQNNKVKRNVIKIIMNSLWGKFAQKWVNFEYFIKSEDDIDFESEEAYKIWDTDFMLIKKIKESTYSSKPIQNGVFTLSWARYHMKSIWDAGAKEGAECIYSDTDSIFVHKEHFKKNAKFMLNGLKVPIIGSEVGQLELECEFDKLLCAGKKQYMGFYTYFQDGKPCIKEKKRFKGIPSNYIIPELYAHLLSGADKEAKIQFLKFRREWGSVKGYIENKTVKAT,2.02 fold
4,E704K: TP-DNAP1 variant (protein) MDYKDKALNDLRNVYADFDSLPLDFRQILIKDRATLLQKEDVEKKILERQEDAKKYAEYLKQSEIPERISLPNIKRHKGVSISFEETSEDMVLEPRPFIFDGLNIRCFRRETIFSLKNKILNMVKESSSFKNVSRQSVSFMYFKIFNKGKVIASTKSVNIYEDKIDERLEDLCNNFDDVLKKIIDVTYGYESLFVSETYSYVIFYAKSIYFPQPRCVNNWGNNIPNILTFDSFKLFTANKNNVSCIKQCSRFLWQKDFNTLEEMIEYKNGNICIVTPQLHINDVRDIKSFNDIRLYSESPIKTFSVIDNTITYLFYFKEHLGVIFNITKSRHDRRVTKFSPLSKFSDVKNITVCFDIESYFDPEKESNQVNIPFICCASIIYNKVIGNIVDFEGRDCVAQMIEYVVDICGELNISSVELIAHNGGGYDFHYILSSMYNPAAIKNILIRNNSFISFNFAHDGVKFSVKDSYSFLLCSLANASKAFLNEETFKKTDFPHHDLKTADDLYKVYKEWSSVNTEINHVVEKEKLLITSEHIVNFTKNDKSKTLIEWSKDYCRNDVLVLSKVWLEFKNAVEDIFNCELVDQTMTLAGLSYKLFQANMPFDVELRHPNKEDYFNMREALIGGRCISVNGIYKDVLCLDVKSLYPASMAFYDQPYGSFKRVSSRPKDELGIYYVRVTPNRNNKSNFFPIRSHNKITYNNFEKSTYIAWYTNVDIDIGLSEGHNIEYIPFDSYGNIGYSWSKKGKIFEKYIKDVLYKLKIKYEKQNNKVKRNVIKIIMNSLWGKFAQKWVNFEYFIKSEDDIDFESEEAYKIWDTDFMLIKKIKESTYSSKPIQNGVFTLSWARYHMKSIWDAGAKEGAECIYSDTDSIFVHKEHFKKNAKFMLNGLKVPIIGSEVGQLELECEFDKLLCAGKKQYMGFYTYFQDGKPCIKEKKRFKGIPSNYIIPELYAHLLSGADKEAKIQFLKFRREWGSVKGYIENKTVKAT,1.8 fold
5,E704D: TP-DNAP1 variant (protein) MDYKDKALNDLRNVYADFDSLPLDFRQILIKDRATLLQKEDVEKKILERQEDAKKYAEYLKQSEIPERISLPNIKRHKGVSISFEETSEDMVLEPRPFIFDGLNIRCFRRETIFSLKNKILNMVKESSSFKNVSRQSVSFMYFKIFNKGKVIASTKSVNIYEDKIDERLEDLCNNFDDVLKKIIDVTYGYESLFVSETYSYVIFYAKSIYFPQPRCVNNWGNNIPNILTFDSFKLFTANKNNVSCIKQCSRFLWQKDFNTLEEMIEYKNGNICIVTPQLHINDVRDIKSFNDIRLYSESPIKTFSVIDNTITYLFYFKEHLGVIFNITKSRHDRRVTKFSPLSKFSDVKNITVCFDIESYFDPEKESNQVNIPFICCASIIYNKVIGNIVDFEGRDCVAQMIEYVVDICGELNISSVELIAHNGGGYDFHYILSSMYNPAAIKNILIRNNSFISFNFAHDGVKFSVKDSYSFLLCSLANASKAFLNEETFKKTDFPHHDLKTADDLYKVYKEWSSVNTEINHVVEKEKLLITSEHIVNFTKNDKSKTLIEWSKDYCRNDVLVLSKVWLEFKNAVEDIFNCELVDQTMTLAGLSYKLFQANMPFDVELRHPNKEDYFNMREALIGGRCISVNGIYKDVLCLDVKSLYPASMAFYDQPYGSFKRVSSRPKDELGIYYVRVTPNRNNKSNFFPIRSHNKITYNNFEDSTYIAWYTNVDIDIGLSEGHNIEYIPFDSYGNIGYSWSKKGKIFEKYIKDVLYKLKIKYEKQNNKVKRNVIKIIMNSLWGKFAQKWVNFEYFIKSEDDIDFESEEAYKIWDTDFMLIKKIKESTYSSKPIQNGVFTLSWARYHMKSIWDAGAKEGAECIYSDTDSIFVHKEHFKKNAKFMLNGLKVPIIGSEVGQLELECEFDKLLCAGKKQYMGFYTYFQDGKPCIKEKKRFKGIPSNYIIPELYAHLLSGADKEAKIQFLKFRREWGSVKGYIENKTVKAT,1.89 fold
6,E704I: TP-DNAP1 variant (protein) MDYKDKALNDLRNVYADFDSLPLDFRQILIKDRATLLQKEDVEKKILERQEDAKKYAEYLKQSEIPERISLPNIKRHKGVSISFEETSEDMVLEPRPFIFDGLNIRCFRRETIFSLKNKILNMVKESSSFKNVSRQSVSFMYFKIFNKGKVIASTKSVNIYEDKIDERLEDLCNNFDDVLKKIIDVTYGYESLFVSETYSYVIFYAKSIYFPQPRCVNNWGNNIPNILTFDSFKLFTANKNNVSCIKQCSRFLWQKDFNTLEEMIEYKNGNICIVTPQLHINDVRDIKSFNDIRLYSESPIKTFSVIDNTITYLFYFKEHLGVIFNITKSRHDRRVTKFSPLSKFSDVKNITVCFDIESYFDPEKESNQVNIPFICCASIIYNKVIGNIVDFEGRDCVAQMIEYVVDICGELNISSVELIAHNGGGYDFHYILSSMYNPAAIKNILIRNNSFISFNFAHDGVKFSVKDSYSFLLCSLANASKAFLNEETFKKTDFPHHDLKTADDLYKVYKEWSSVNTEINHVVEKEKLLITSEHIVNFTKNDKSKTLIEWSKDYCRNDVLVLSKVWLEFKNAVEDIFNCELVDQTMTLAGLSYKLFQANMPFDVELRHPNKEDYFNMREALIGGRCISVNGIYKDVLCLDVKSLYPASMAFYDQPYGSFKRVSSRPKDELGIYYVRVTPNRNNKSNFFPIRSHNKITYNNFEISTYIAWYTNVDIDIGLSEGHNIEYIPFDSYGNIGYSWSKKGKIFEKYIKDVLYKLKIKYEKQNNKVKRNVIKIIMNSLWGKFAQKWVNFEYFIKSEDDIDFESEEAYKIWDTDFMLIKKIKESTYSSKPIQNGVFTLSWARYHMKSIWDAGAKEGAECIYSDTDSIFVHKEHFKKNAKFMLNGLKVPIIGSEVGQLELECEFDKLLCAGKKQYMGFYTYFQDGKPCIKEKKRFKGIPSNYIIPELYAHLLSGADKEAKIQFLKFRREWGSVKGYIENKTVKAT,1.35 fold
